Biological target: CD30 on CD30+ lymphoma cell lines (UniProt P28908)
Assay: cell-based or functional assay

Chain of UniProt P28908 (P28908 19-595 limits assumed): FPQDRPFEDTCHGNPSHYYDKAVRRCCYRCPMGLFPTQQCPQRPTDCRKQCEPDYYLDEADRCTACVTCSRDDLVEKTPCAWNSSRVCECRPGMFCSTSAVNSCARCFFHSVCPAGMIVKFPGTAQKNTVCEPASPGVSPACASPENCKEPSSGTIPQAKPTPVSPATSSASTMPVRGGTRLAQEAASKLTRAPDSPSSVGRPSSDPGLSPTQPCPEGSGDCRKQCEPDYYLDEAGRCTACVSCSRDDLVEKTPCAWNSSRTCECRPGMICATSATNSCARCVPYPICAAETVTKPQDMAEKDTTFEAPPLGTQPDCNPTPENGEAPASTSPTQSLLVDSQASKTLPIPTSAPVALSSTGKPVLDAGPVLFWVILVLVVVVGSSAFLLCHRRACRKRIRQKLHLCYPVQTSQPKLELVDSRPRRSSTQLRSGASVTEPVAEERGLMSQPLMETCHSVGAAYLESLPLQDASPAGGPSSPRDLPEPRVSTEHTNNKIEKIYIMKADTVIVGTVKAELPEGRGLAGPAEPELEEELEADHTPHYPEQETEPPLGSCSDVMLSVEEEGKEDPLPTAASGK

For “bispecific tetravalent CD30/CD16A tandem diabody AFM13 (bispecific antibody)”, the specific lysis of CD30+ tumor cells by NK cells, 4-hour 51Cr release assay was 0.001 µg/mL.

From patent US20200010547A1
